Key:
[1] = target: T1, MtrA (Mycobacterium tuberculosis) (UniProt P9WGM7); test: DNase I footprinting
T1 sequence: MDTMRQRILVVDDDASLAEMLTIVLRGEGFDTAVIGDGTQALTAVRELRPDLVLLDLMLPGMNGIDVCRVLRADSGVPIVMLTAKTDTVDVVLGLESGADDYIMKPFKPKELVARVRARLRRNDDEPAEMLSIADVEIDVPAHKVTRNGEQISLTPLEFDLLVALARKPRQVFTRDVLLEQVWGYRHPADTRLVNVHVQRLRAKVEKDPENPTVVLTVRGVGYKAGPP

[2] = target: T2, MtrA (Mycobacterium tuberculosis, UniProt P9WGM7 1-228); test: EMSA; details: protein: recombinant; tags: 6His (pET28a) or GST (pGEX-4T-1); chain copies: 2; label: 32P
T2 sequence: T1 sequence

[3] = target: T2, MtrA; test: EMSA; 100-600 nM MtrA; details: protein: recombinant, tags: 6His (pET28a) or GST (pGEX-4T-1), chain copies: 2

“AATTCTACGGAAAACTGTTAGCTTCGGGCGGTGTAGTTATCACGCCGTTTCAGCGTGGAAACGGCACTCGACAATCAAGCGAGGATGGC (double strand) [S6 (84 bp)]” was tested, and the binding [1] was “binds”.

For “AATTCTAGCGGCCCGGACAACTTGAACCGGGTGTTTTCAACACGAGGATCGCGAGCCGTTGCCGGTAGGTTGCGGCTGGT (double strand) [S7 (75 bp)]”, the binding [1] was “binds”.

B1: Negative control (dsDNA)
DNA 1: CGGAGGTGGTTTTCGCTGCT
DNA 2: AGCAGCGAAAACCACCTCCG
B1: no binding [2].

B2: S5 (dsDNA)
DNA 1: AACACGAGGATCGCGAGCCGTTGCCGGTAGGTTGCGGCTGGT
DNA 2: ACCAGCCGCAACCTACCGGCAACGGCTCGCGATCCTCGTGTT
B2: binds ([3]; label: 32P (EMSA)).

B3: Rv0341p (iniB) (dsDNA)
DNA 1: CGCCGGTCACGCCGGCGAACA
DNA 2: TGTTCGCCGGCGTGACCGGCG
B3: binds [2].

B4: CglumepAp (dsDNA)
DNA 1: CCCCTAGCACGGCGTGTTTGG
DNA 2: CCAAACACGCCGTGCTAGGGG
B4: binds [2].

B5: Rv0574cp (dsDNA)
DNA 1: GCGGTCTTGAGGACCTTCGGCCCCACCCACGAGGCCGCCG
DNA 2: CGGCGGCCTCGTGGGTGGGGCCGAAGGTCCTCAAGACCGC
B5: binds [2].

B6: S2 (dsDNA)
DNA 1: TCACGCCGTTTCAGCGTGGAAACGGCACTC
DNA 2: GAGTGCCGTTTCCACGCTGAAACGGCGTGA
B6: binds ([3]; label: 32P (EMSA)).

B7: S1 (dsDNA)
DNA 1: GCGGTGTAGTTATCACGCCG
DNA 2: CGGCGTGATAACTACACCGC
B7: binds ([3]; label: 32P).

B8: S4 (dsDNA)
DNA 1: GCGAGCCGTTGCCGGTAGGTTGCGGCTGGT
DNA 2: ACCAGCCGCAACCTACCGGCAACGGCTCGC
B8: no binding ([3]; label: 32P).

B9: S3 (dsDNA)
DNA 1: TTTCAGCGTGGAAACGGCACTC
DNA 2: GAGTGCCGTTTCCACGCTGAAA
B9: no binding ([3]; label: 32P).

B10: Rv3476cp (kgtP) (dsDNA)
DNA 1: CTGCATCCACGCCGGCGACACGCCGAGGGACG
DNA 2: CGTCCCTCGGCGTGTCGCCGGCGTGGATGCAG
B10: binds [2].

B11: CgluproPp (dsDNA)
DNA 1: GACTTTTCACCCCGAACCTTA
DNA 2: TAAGGTTCGGGGTGAAAAGTC
B11: binds [2].
